From paper doi:10.1101/2024.02.25.581584 (bioRxiv, 2024)

How the values were obtained:
CENP-T^2D [1] = target: T1, CENP-T^2D (human, UniProt Q96BT3 1-242, T11D | T85D); test: TIRF microscopy of clusters
[2] = target: T2, CENP-T^6D (CENP-T^6D-GFP-Spy-tag) (human, UniProt Q96BT3 1-242, T11D | T27D | S47D | T85D | T195D | S201D); test: TIRF microscopy of clusters
CENP-T^site1 [3] = target: T3, CENP-T^site1 (human, UniProt Q96BT3 1-242, T11D | deletion of amino acids from 76 to 106); test: TIRF microscopy of single molecules
[4] = target: T2, CENP-T^6D (CENP-T^6D-GFP-Spy-tag); test: TIRF microscopy of single molecules
CENP-T^site2 = CENP-T^site2 (human, UniProt Q96BT3 1-242, T85D | deletion of amino acids from 2 to 30); test: TIRF microscopy of single molecules
CENP-T^site1 [5] = target: T3, CENP-T^site1; test: TIRF microscopy of single molecules; remark: listed apart in the source
CENP-T^2D [6] = target: T1, CENP-T^2D; test: fluorescence correlation spectroscopy

Binder | binding result (CENP-T^2D [1]) | stoichiometry N [2] | stoichiometry N (CENP-T^site1 [3]) | stoichiometry N [4] | stoichiometry N (CENP-T^site2) | fold reduction of kon of site 1 against CENP-T^2D and CENP-T^6D (model fit) (CENP-T^site1 [5]) [fold] | binding result (CENP-T^2D [6])
Human Bonsai Ndc80 complex with C-terminal GFP (complex) chain 1: MKRSSVSSGGAGRLSMQELRSQDVNKQGLYTPQTKEKPTFGKLSINKPTSERKVSLFGKRTSGHGSRNSQLGIFSSSEKIKDPRPLNDKAFIQQCIRQLCEFLTENGYAHNVSMKSLQAPSVKDFLKIFTFLYGFLCPSYELPDTKFEEEVPRIFKDLGYPFALSKSSMYTVGAPHTWPHIVAALVWLIDCIKIHTAMKESSPLFDDGQPWGEETEDGIMHNKLFLDYTIKCYESFMSGADSFDEMNAELQSKLKDLFNVDAFKLESLEAKNRALNEQIARLEQERSTANKANAERLKRLQKSADLYKDRLGLEIRKIYGEKLQFIFTNIDPKNPESPFMFSLHLNEARDYEVSDSAPHLEGLAEFQENVRKTNNFSAFLANVRKAFTATVYN chain 2: METLSFPRYNVAEIVIHIRNKILTGADGKNLTKNDLYPNPKPEVLHMIYMRALQIVYGIRLEHFYMMPVNSEVMYPHLMEGFLPFSNLVTHLDSFLPICRVNDFETADILCPKAKRTSRFLSGIINFIHFREACRETYMEFLWQYKSSADKMQQLNAAHQEALMKLERLEKEVDEDTTVTIPSAVYVAQLYHQVSKIEWDYECEPGMVKGIHHGPSVAQPIHLDSTQLSRKFISDYLWSLVDTEW | binds | ≤ 2 Ndc80 molecules per CENP-T | ~1 Ndc80 molecules per CENP-T | ~2 Ndc80 molecules per CENP-T | ~1 Ndc80 molecules per CENP-T | 8 | 
Human Bonsai Ndc80 complex, untagged (complex) chain 1: MKRSSVSSGGAGRLSMQELRSQDVNKQGLYTPQTKEKPTFGKLSINKPTSERKVSLFGKRTSGHGSRNSQLGIFSSSEKIKDPRPLNDKAFIQQCIRQLCEFLTENGYAHNVSMKSLQAPSVKDFLKIFTFLYGFLCPSYELPDTKFEEEVPRIFKDLGYPFALSKSSMYTVGAPHTWPHIVAALVWLIDCIKIHTAMKESSPLFDDGQPWGEETEDGIMHNKLFLDYTIKCYESFMSGADSFDEMNAELQSKLKDLFNVDAFKLESLEAKNRALNEQIARLEQERSTANKANAERLKRLQKSADLYKDRLGLEIRKIYGEKLQFIFTNIDPKNPESPFMFSLHLNEARDYEVSDSAPHLEGLAEFQENVRKTNNFSAFLANVRKAFTATVYN chain 2: METLSFPRYNVAEIVIHIRNKILTGADGKNLTKNDLYPNPKPEVLHMIYMRALQIVYGIRLEHFYMMPVNSEVMYPHLMEGFLPFSNLVTHLDSFLPICRVNDFETADILCPKAKRTSRFLSGIINFIHFREACRETYMEFLWQYKSSADKMQQLNAAHQEALMKLERLEKEVDEDTTVTIPSAVYVAQLYHQVSKIEWDYECEPGMVKGIHHGPSVAQPIHLDSTQLSRKFISDYLWSLVDTEW |  |  |  |  |  |  | binds
